# Laboratory results published in US20230174642A1, “AFFINITY-MATURATED ANTI-ASIC1a ANTIBODIES” (SHANGHAITECH UNIVERSITY, priority 2019, published 2023).
# Changes are numbered by the printed parent chain.
# T1: human ASIC3a-eYFP (hASIC3a-eYFP) on transiently transfected CHO-K1 cells (human, UniProt Q9UHC3 1-531)
# T1 construct: whole, on cells; not shown: eYFP fusion partner
# T1 sequence (looked up): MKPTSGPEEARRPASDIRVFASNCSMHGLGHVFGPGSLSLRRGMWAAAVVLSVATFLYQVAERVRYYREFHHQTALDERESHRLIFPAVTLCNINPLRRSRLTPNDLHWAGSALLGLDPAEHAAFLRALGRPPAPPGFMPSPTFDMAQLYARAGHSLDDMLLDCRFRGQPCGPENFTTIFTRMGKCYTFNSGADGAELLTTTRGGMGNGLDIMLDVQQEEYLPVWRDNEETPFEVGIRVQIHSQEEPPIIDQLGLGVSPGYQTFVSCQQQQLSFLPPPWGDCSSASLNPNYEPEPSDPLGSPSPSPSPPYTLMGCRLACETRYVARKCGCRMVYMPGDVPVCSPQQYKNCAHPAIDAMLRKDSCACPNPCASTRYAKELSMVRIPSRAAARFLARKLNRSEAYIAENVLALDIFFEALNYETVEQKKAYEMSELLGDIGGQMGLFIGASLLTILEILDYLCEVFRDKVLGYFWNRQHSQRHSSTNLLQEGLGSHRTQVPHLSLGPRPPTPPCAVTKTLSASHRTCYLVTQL
# T2: mouse ASIC1a-eYFP (mASIC1a-eYFP) on transiently transfected CHO-K1 cells (mouse, UniProt Q6NXK8 1-526)
# T2 construct: whole, on cells; not shown: eYFP fusion partner
# T2 sequence (looked up): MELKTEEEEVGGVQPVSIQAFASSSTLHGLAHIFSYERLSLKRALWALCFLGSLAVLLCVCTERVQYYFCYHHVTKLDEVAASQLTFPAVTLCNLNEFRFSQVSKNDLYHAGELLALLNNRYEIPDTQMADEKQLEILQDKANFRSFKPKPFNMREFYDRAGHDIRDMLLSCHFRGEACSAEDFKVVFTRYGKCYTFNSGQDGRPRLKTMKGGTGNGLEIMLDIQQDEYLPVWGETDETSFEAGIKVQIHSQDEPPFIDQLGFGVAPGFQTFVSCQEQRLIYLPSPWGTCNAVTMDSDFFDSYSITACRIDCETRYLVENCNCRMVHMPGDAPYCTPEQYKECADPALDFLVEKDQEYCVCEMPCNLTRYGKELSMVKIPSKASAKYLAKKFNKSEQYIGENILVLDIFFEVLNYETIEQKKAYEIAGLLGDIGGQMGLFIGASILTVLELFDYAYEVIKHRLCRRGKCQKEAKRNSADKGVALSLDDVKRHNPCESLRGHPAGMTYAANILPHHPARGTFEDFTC
# T3: recombinant extracellular domain of hASIC1a (hASIC1a-ECD) (Homo sapiens, UniProt P78348)
# T3 construct: recombinant extracellular domain of hASIC1a(hASIC1a-ECD)
# T3 sequence (P78348 67-427 limits assumed): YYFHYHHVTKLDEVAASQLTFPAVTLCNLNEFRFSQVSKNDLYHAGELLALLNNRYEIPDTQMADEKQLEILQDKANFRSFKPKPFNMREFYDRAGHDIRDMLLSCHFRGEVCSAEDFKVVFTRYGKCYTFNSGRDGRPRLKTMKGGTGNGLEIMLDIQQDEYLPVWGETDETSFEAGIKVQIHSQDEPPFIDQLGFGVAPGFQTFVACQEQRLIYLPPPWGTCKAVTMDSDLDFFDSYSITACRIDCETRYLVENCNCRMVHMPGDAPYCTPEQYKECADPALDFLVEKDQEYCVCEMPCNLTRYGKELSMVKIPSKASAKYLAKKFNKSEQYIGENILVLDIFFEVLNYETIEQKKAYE
# B1: ASC06-03-IgG1 (antibody, V domains shown)
# VH: QVQLQQSGGGLVQPGGSLRLSCAASGFTFSSYAMSWVRQAPGKGLEWVSAISGSGGSTYYADSVKGRFTISRDNSKNTLYLQMNSLRAEDTAVYYCAKDSFYGRAKGSWGQGTLVTVSS
# VL: QSALTQPASVSGSPGQSITISCTGTSSDVGAYNYVSWYQQQPGKAPKLMIYGVSNRPSGVSNRFSGSKSGNAASLTISGLQAEDEADYYCSSYTSSSTYVFGTGTKLTVLG
# notes: Full length IgG1
# B2: ASC06-02-IgG1 (antibody, V domains shown)
# VH: B1 VH with Y102F
# VL: B1 VL
# notes: Full length IgG1
# B3: ASC06-04-IgG1 (antibody, V domains shown)
# VH: B1 VH with S108V
# VL: B1 VL
# notes: Full length IgG1
# B4: ASC06-IgG1 (antibody, V domains shown)
# VH: B1 VH with R104Y, A105S, S108D
# VL: B1 VL
# notes: Tested as full length IgG1; also called WT antibody ASC06-IgG1; parental ASC06-IgG1 antibody
# B5: ASC06-01-IgG1 (antibody, V domains shown)
# VH: B1 VH with F101Y, Y102F, R104Y, A105S, S108D
# VL: B1 VL
# notes: Full length IgG1
# B6: ASC06-IgG1: parental (WT) ASIC1a-specific antagonist antibody; VL SEQ ID NO: 2, VH SEQ ID NO: 7, VH-CDR3 DSFYGYSKGD (antibody, V domains shown)
# VH: B1 VH with R104Y, A105S, S108D
# VL: B1 VL
# modifications: IgG1 constant regions; Amino acid sequence VH of ASC06; Amino acid sequence VL of ASC06
# B7: ASC06-04-IgG1: affinity-matured ASC06 derivative, VH-CDR3 DSFYGRAKGV (SEQ ID NO: 17) (antibody, V domains shown)
# VH: B1 VH with S108V
# VL: B1 VL
# B8: ASC06-01-IgG1: affinity-matured ASC06 derivative, VH-CDR3 DSYFGYSKGD (SEQ ID NO: 11) (antibody, V domains shown)
# VH: B1 VH with F101Y, Y102F, R104Y, A105S, S108D
# VL: B1 VL
# B9: ASC06-03-IgG1: affinity-matured ASC06 derivative, VH-CDR3 DSFYGRAKGS (SEQ ID NO: 15) (antibody, V domains shown)
# VH: B1 VH
# VL: B1 VL
# B10: ASC06-02-IgG1: affinity-matured ASC06 derivative, VH-CDR3 DSFFGRAKGS (SEQ ID NO: 13) (antibody, V domains shown)
# VH: B1 VH with Y102F
# VL: B1 VL
# Target: T1, human ASIC3a-eYFP (hASIC3a-eYFP) on …
# Assay: FACS on transiently transfected CHO-K1 cells
# Details: not given
# Procedure: (§1) To investigate the species selectivity of ASC06-IgG1 affinity-matured antibodies, plasmids encoding fusion proteins of eYFP with […] homologs of ASIC1a were constructed. These plasmids included those encoding human ASIC1a (hASIC1a-eYFP), mouse ASIC1a (mASIC1a-eYFP), and rat ASIC1a (rASIC1a-eYFP). CHO-K1 cells were transiently transfected with the ASIC1a-eYFP plasmids, and a fluorescence activated cell sorting (FACS)-based binding assay was carried out to determine binding to the homologs or isoforms of ASIC1a expressed on the cell surface. An isotype control was used as a negative control for binding (NC). ASC06-IgG1 was used as a positive control. Summarily, the CHO-K1 cells expressing the ASIC1a-eYFP (green) homologs were stained with the indicated antibody (red) and subjected to FACS.
# (§2) To examine the ASIC isotype selectivity of ASC06-IgG1 affinity-matured antibodies, plasmids encoding fusion proteins of eYFP with isoforms of […] were constructed. These plasmids included those encoding human ASIC1b (hASIC1b-eYFP), human ASIC2a (hASIC2a-eYFP), and human ASIC3a (hASIC3a-eYFP). CHO-K1 cells were transiently transfected with these plasmids and used in a FACS-based binding assay disclosed herein. Binding of ASC06-IgG1 to CHO-K1 cells expressing human ASIC1a-eYFP (hASIC1a-eYFP) was used as a positive control (data not shown and FIG. 2), and an isotype control was used as a negative control for binding (NC).
row,Molecule,binding result
1,B1,no binding
2,B2,no binding
3,B3,no binding
4,B4,no binding
5,B5,no binding

# Target: T2, mouse ASIC1a-eYFP (mASIC1a-eYFP) on …
# Assay: FACS on transiently transfected CHO-K1 cells
# Details: not given
# Procedure: as §1, §2
row,Molecule,binding result
1,B1,binds
2,B2,binds
3,B3,binds
4,B4,binds
5,B5,binds

# Target: T3, recombinant extracellular domain of hASIC1a (hASIC1a-ECD)
# Assay: Biacore T200 binding affinity measurement
# Details: Biacore T200, hASIC1a immobilized, antibody as analyte
# Procedure: Binding affinities of four affinity-matured antibodies in IgG1 format (ASC06-01-IgG1 through ASC06-04-IgG1) to the recombinant extracellular domain of hASIC1a(hASIC1a-ECD) were measured using the Biacore T200™ (GE Healthcare). The ASC06-IgG1 antibody was used as a positive control. All manipulations were followed by the user guide of manufacturer. Briefly, was hASIC1a was immobilized, and serial dilutions of the indicated antibodies were added as analytes. The analysis of the results were processed in BIA Evaluation Software™.
row,Molecule,Ka [M⁻¹ s⁻¹]
1,B6,4.7e+06
2,B7,620000
3,B8,9.7e+06
4,B9,680000
5,B10,1.3e+07
